Assays:
MDA‐MB‐231 tumor = experiment: Orthotopic xenograft MDA‐MB‐231 tumor model; format: in vivo, BALB/c nude mice
Experimental: For the orthotopic xenograft MDA‐MB‐231 tumor model, 3 × 10^6 cells were injected into the fourth pair of breast pads on the left side of the female nude mice (4–6 weeks old). To evaluate the antitumor effect of NanoCLY in vivo, the mice were treated with 10 mg kg^−1 NanoCLY daily once the tumor volume reached ≈50 mm^3, with CL8 peptide (10 mg kg^−1, daily) and FG‐3019 (30 mg kg^−1, every 3 days) as the positive control group and PBS as negative control group. The dose selection and administration frequency of NanoCLY were based on both references to previously reported protein degrader studies with similar mechanisms and effective concentrations,^[ [28], [54], [58] ^] and our preliminary in vivo dose‐escalation experiments. […] Based on this, 10 mg kg^−1 was selected for subsequent experiments. As for FG‐3019, the 30 mg kg^−1 dose was chosen based on previous studies.^[ [43], [59] ^] To evaluate the advantages of degradation strategies in vivo, the mice were treated with 10 mg kg^−1 NanoCLY daily with Nano@CL8 (10 mg kg^−1, daily) and PBS as control group. To evaluate the antitumor effect of combination therapy in vivo, the mice were treated with NanoCLY (10 mg kg^−1, daily), PTX (5 mg kg^−1, every two days), and PTX plus NanoCLY. […]

CTGF = biological target: T1, CTGF (Homo sapiens, UniProt P29279); experiment: ELISA of extracellular CTGF in culture media of TNBC cells; format: cell-based; conditions: in vitro, BT549 and MDA-MB-231 culture media, 12 h
T1 construct: endogenous in cells; host or cells: BT549 and MDA-MB-231 (human TNBC cell lines)
T1 sequence (P29279 27-349): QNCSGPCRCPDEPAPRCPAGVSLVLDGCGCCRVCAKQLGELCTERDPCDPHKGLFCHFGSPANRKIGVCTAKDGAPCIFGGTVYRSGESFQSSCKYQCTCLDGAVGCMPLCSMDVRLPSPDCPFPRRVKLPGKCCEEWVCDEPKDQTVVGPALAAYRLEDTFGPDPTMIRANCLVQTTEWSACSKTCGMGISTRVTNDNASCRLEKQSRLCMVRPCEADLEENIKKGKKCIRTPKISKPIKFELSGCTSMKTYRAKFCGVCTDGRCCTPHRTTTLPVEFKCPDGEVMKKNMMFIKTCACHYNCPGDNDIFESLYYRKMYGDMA
Experimental: BT549 and MDA‐MB‐231 cells were treated with various concentrations of CL8‐M6P3 or NanoCLY for 12 h. Extracellular CTGF protein level in conditioned media was quantified by a human CTGF ELISA kit following the manufacturer's instructions (ab261851, Abcam and CSB‐E07875h, Cusabio). Extracellular CCN1, CCN3, and CCN4 protein levels were quantified using respective ELISA kits (HY‐P7842, HY‐P701327, HY‐P78051, MCE) following the manufacturer's instructions (CSB‐EL015956HU, CSB‐EL026119HU, CSB‐E13884h, Cusabio). Additionally, BSP and β‐CTx levels in serum were quantified by ELISA kit following the manufacturer's instructions (BPE10823, BPE10438, lengton).

Plasma stability assay = format: in vitro ADME; conditions: 50% mouse plasma (DLS) and 20% mouse plasma or 1.5 × 10^−6 M GSH (HPLC), different time periods, n = 3
Experimental: For the DLS assay, NanoCLY solution was mixed with 50% mouse plasma and incubated for different time periods. After incubation, the aliquots were analyzed using DLS. For the NanoCLY stability assay under simulated plasma GSH conditions, NanoCLY solution was mixed with 1.5 × 10^−6 M GSH or 20% mouse plasma, and was incubated for different time periods. After incubation, the aliquots were diluted and analyzed by HPLC.

red blood cells = experiment: Hemolysis assay; format: cell-based, mice; conditions: mouse erythrocytes, 0-30 × 10^−6 M, 1 h, 37 °C, absorbance 570 nm
Experimental: The hemolytic activities of CL8, CL8‐M6P3, and NanoCLY were determined by monitoring hemoglobin release from red blood cells. Fresh erythrocytes were obtained from the whole blood of mice by centrifugation (1000 × g for 30 min at 4 °C), and washed three times with cold 0.9% NaCl. The erythrocytes were dispensed into 96‐well plates, incubated with CL8, CL8‐M6P3 and NanoCLY at specified concentrations (0, 0.3, 1, 3, 10, and 30 × 10^−6 M) for 1 h at 37 °C, centrifuged at 1000 × g for 10 min, the supernatant samples were collected, and the absorbance at 570 nm was measured by microplate reader Cytation 5 (Biotek, USA). The negative control group was defined as the absorbance obtained in 1× PBS (A PBS), and 100% hemolysis in 0.1%Triton X‐100 (v/v) (A Triton). The hemolysis percentage was calculated as: (A peptide − A PBS)/(ATriton − A PBS) × 100%.

[1] = Stability of nanoparticles in PBS; format: physicochemical; conditions: PBS pH 7.4, 37 °C, n = 3
[2] = Critical micelle concentration with pyrene; format: physicochemical; conditions: pyrene fluorescence I390/I380, aqueous solution, sonicated 2 h
Experimental: The CMC value of NanoCLY in an aqueous solution was estimated by pyrene. Pyrene with the final concentration of 6.08 mg L^−1 was added 100 µL to Eppendorf tubes and dried overnight, and was added with 500 µL of various concentrations of NanoCLY (0.001, 0.006, 0.0125, 0.025, 0.05, 0.2, 0.6 mg mL^−1), and sonicated for 2 h. After sonicating, the supernatant samples were collected, and recorded the intensity ratios of I390/I380 by microplate reader Cytation 5 (Biotek, USA). The crossing point of the two linear fittings of the logarithm of NanoCLY concentrations was set as the CMC value.

extracellular CTGF degraded (CTGF): ≈ 50%
Substance: C12-CPSAAHYL-PEG3-[Pra(M6P)βAla]3-NH2 [NanoCLY, CL8-M6P3 joined to a lauryl chain via disulfide; self-assembling GSH-responsive LYTAC nanoparticle]
tumor growth inhibition (TGI) (MDA‐MB‐231 tumor; 10 mg kg^−1 daily i.v., n = 6): 59.62% and ≈ 60% | tumor inhibition rate (MDA‐MB‐231 tumor; preliminary in vivo dose-escalation experiments, 10 mg kg^−1): over 50% | size and structural integrity under plasma conditions (Plasma stability assay): retained its size and structural integrity | hemolysis safety (red blood cells): good hemolysis safety | stability in PBS (size and PDI) [1]: at least 72 h | critical micelle concentration (CMC) [2]: 55.1 µg/mL

From paper PMC12199414, “A Self‐Assembling LYTAC Mediates CTGF Degradation and Remodels Inflammatory Tumor Microenvironment for Triple‐Negative Breast Cancer Therapy” (Advanced Science, 2025)
